Measured values taken from patent publication US10556007B2, “Antibody which binds Lrg1 and methods of use” (UCL Business PLC, priority 2015, dated 2020).
“Also recorded” adds a separate entry of the source.

How the values were obtained:
[1] = system: laser-induced choroidal neovascularisation; experiment: Rat laser-induced choroidal neovascularisation (CNV); type: in vivo; settings: Long Evans rats, intravitreal at time of lasering, analysis 7 days later
Description: Several antibodies were tested for their ability to block CNV in the rat. In these experiments mAbs were injected intravitreally at the time of lasering, with eyes being retrieved for analysis 7 days later (FIG. 5). Long Evans rats, aged 6-8 weeks, each received 5 retinal laser burns at the same time as intravitreal delivery of […] mAb or control IgG into both eyes. Four rats were used for each mAb, so a total of 40 lesions were analysed by staining for collagen IV and the neovascular areas quantified. […] Avastin was also tested in the rat laser model (data not shown) and observed to have no effect, consistent with Avastin having low affinity for rat VEGF.

[2] = Analytical size exclusion chromatography; type: physicochemical
healthy donor T cells = experiment: EpiScreen T cell proliferative assay; type: cell-based, human; settings: 20 donor T cell samples, days 5-8
Source text: FIG. 21D—Summary of healthy donor T cell proliferative responses. Positive T cell responses during EpiScreen™ time course days 5-8 are shown (P). Samples inducing proliferation with SI ≥2.00 that were significant (p<0.05) were considered positive (borderline responses* SI≥1.90, p<0.05 are also shown). The frequency of positive T cell responses for proliferation are shown as a percentage at the bottom of the columns.

[3] = system: laser-induced choroidal neovascularisation; experiment: Mouse model of laser-induced CNV; type: in vivo; settings: for lesion size: C57B6 mice, intravitreal
Description: The images on the left of FIG. 17A show a typical wild-type mouse retina under normal illumination (Fundus), and under fluorescence illumination, 7 days after three laser burns were administered to the retinal pigment epithelium. Fluorescence images were captured ˜60 seconds after systemic dosing with fluorescein (Early Phase FFA) and again after ˜7 minutes (Late Phase FFA). At the time of lasering, animals received intraocular injections of either control IgG (top panels) or 15C4 (lower panels). The Early Phase FFA images show the size of the lesions, and the Late Phase images show leakage of fluorescein into the retina. Lesion sizes were quantified for 15C4 at 2.5, 5 and 10 μg doses, and also Eylea at 2 and 4 μg, and the % blocking is a measure of average lesion size relative to that observed in the controls. On the far right a similar analysis was undertaken using Eylea and Magacizumab (both at 2.1 μg) alone and in combination.
Wild type C57B6 mice were anaesthetized and received intravitreal injections of various doses of either Magacizumab, Eylea, or both in combination, immediately following laser photocoagulation of the retinal pigment epithelium. After 7 days (to allow the vascular lesions to form) the mice were again anaesthetized and examined by fluorescein angiography (FFA). Early phase FFA images (taken after 90 s) show the degree of vascularization at the lesion site. Measurement of the lesion area in the early phase images permits quantification in which percentage lesion size is normalized against the IgG4 control (FIG. 18).

human Lrg1 = target: T1, human Lrg1 (Homo sapiens, UniProt P02750); experiment: Anti-human Lrg1 competition ELISA against biotinylated mouse 15C4; type: binding; design: made in house; settings: competition with biotinylated mouse 15C4
T1 sequence (P02750 36-347): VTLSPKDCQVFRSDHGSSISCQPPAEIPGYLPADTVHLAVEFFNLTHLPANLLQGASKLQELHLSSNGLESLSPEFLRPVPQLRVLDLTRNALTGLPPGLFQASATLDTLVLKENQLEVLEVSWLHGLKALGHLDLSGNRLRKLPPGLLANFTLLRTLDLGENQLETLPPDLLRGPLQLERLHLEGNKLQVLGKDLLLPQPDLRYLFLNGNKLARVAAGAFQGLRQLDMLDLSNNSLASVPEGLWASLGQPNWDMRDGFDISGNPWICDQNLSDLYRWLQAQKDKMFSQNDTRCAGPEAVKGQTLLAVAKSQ
Description: The chimeric antibody was expressed transiently in HEK EBNA cells and stably in NS0 mouse myeloma cells, purified and tested for binding to human Lrg1 in a competition ELISA assay. A Nunc Immuno MaxiSorp 96 well flat bottom microtitre plate (Fisher, cat. no. DIS-971-030J) was pre-coated with 0.2 μg/ml hLrg1 (supplied by UCL) overnight in 0.1 N Sodium Carbonate buffer (NaHCO3) at +4° C. The following day the plate was washed 1× with PBST and blocked with 3% BSA/PBS for 1 hour at room temperature. After washing 3× with PBST, a three-fold dilution series of chimeric, mouse or control antibodies from 100 μg/ml to 0.13 μg/ml was premixed with a constant concentration of biotinylated mouse 15C4 (0.4 μg/ml, final concentration), added to the plates and incubated for 1.5 hours at room temperature. Following 3×PBST washes, the binding of the biotinylated mAb was detected with streptavidin-HRP (Sigma, cat. no. 55512) and TMB substrate (Invitrogen, cat. no. 00-2023). The reaction was stopped with 3 M HCl, absorbance read at 450 nm on a Dynex Technologies MRX TC II plate reader and the binding curves plotted.
The properties of Magacizumab were investigated. […] An anti-hLrg1 competition ELISA was carried out. […] Bound biotinylated mouse 15C4 was detected using streptavidin-peroxidase and TMB substrate. […]

## Avastin: anti-VEGF antibody Bevacizumab (Avastin) [reference compound]
[1]
  blockade of angiogenesis (CNV): no effect

B1: Magacizumab: humanised 15C4 antibody comprising heavy chain variable regions VH5 and kappa light chain variable regions VK3 (antibody, V domains shown)
VH: QVQLVQSGAEVKKPGSSVKVSCKASGYTFSGYWMNWVRQAPGQGLEWIGQIYPGDGDTNYNGKFKGRVTITADKSTSTAYMELSSLRSEDTAVYYCARSITTVVLDYWGQGTTVTVSS
VL: DIVLTQSPDSLAVSLGERATISCRASQSVSTSGYSFMHWYQQKPGQPPKLLIKYASNLESGVPARFSGSGSGTDFTLTISSLQPEDFATYYCQHSWEMPLTFGQGTKLEIK
[2]
  aggregation by analytical size exclusion chromatography: single peak and no aggregates
Healthy donor T cells
  T cell proliferative response: failed to elicit a proliferative response in any of the 20 donor T cell samples
[3]; alone, vs IgG4 control
  lesion size: significant reduction in lesion size
[3]; in combination with Eylea, vs control
  lesion size: significant reduction in lesion size
[3]; intraocular injection at lasering, FFA after 7 days
  lesion formation: Dose-Dependent Inhibition of Lesion Formation; also recorded: inhibit lesion formation with similar efficacy to the VEGF blocker Eylea

B2: chimeric: murine 15C4 variable regions combined with human IgG4 (S241P) heavy chain and Kappa light chain constant regions (antibody, V domains shown)
VH: QVQLQQSGDEVVRPGSSVKISCKASGYTFSGYWMNWVKQRPGQGLQWIGQIYPGDGDTNYNGKFKGKATLTADKSSSTAYMQLSTLTSEDSAIYFCARSITTVVLDYWGQGTTLTVSS
VL: DIVLTQSPVSLAVSLGQRATISCRASQSVSTSGYSFMHWYQQKPGQPPKFLIKYASNLESGVPARFSGSGSGTDFTLNIHPVEEEDTATYYCQHSWEMPLTFGAGTKLELK
Human Lrg1
  binding profile / competition for binding to human Lrg1: very similar binding profile to mouse 15C4
